From patent US20210379046A1, “Methods of Treating Diseases Using Kinase Modulators” (Memorial Sloan Kettering Cancer Center, priority 2018, published 2021)

Target: non-WT1-derived peptide expressed on TPC1 cells in complex with HLA-A*02:01 (human)
Assay: cell-based or functional assay

- improvement of specific lysis, chromium-51 release ADCC, TPC1 cells pretreated with 100 nM trametinib: 10%
- percent specific lysis, chromium-51 release ADCC with human PBMCs, 50:1 E:T, TPC1 cells pretreated with 10 nM AST487: 20%
- percent specific lysis, chromium-51 release ADCC with human PBMCs, 50:1 E:T, TPC1 cells pretreated with DMSO: 3%
Substance: ESK1 (antibody)
